Consider eight molecules from publication PMC7327521 (Journal of Molecular Biology, 2020).

Square brackets hold non-standard residues; d marks the D form. Ends that are not written are not given here. pY = N[C@@H](Cc1ccc(OP(=O)(O)O)cc1)C(=O)O; pT = C[C@@H](OP(=O)(O)O)[C@H](N)C(=O)O; pS = N[C@@H](COP(=O)(O)O)C(=O)O

Sequences and labels used below:
T1: tandem SH2 domain of C. glabrata Spt6 (Spt6-tSH2) (C. glabrata, UniProt Q6FLB1 1250-1444)
T1 sequence (looked up): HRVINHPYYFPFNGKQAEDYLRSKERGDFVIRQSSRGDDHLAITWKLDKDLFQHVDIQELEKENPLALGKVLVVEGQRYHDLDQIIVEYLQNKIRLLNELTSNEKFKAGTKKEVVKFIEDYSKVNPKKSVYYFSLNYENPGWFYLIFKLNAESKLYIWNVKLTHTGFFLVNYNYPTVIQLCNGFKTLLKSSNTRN

For the experiment, the target named is T1, tandem SH2 domain of C. glabrata Spt6 …. The experiment can be described thus: fluorescence polarisation. On the technique in general: Fluorescence polarisation rises when a labelled molecule tumbles more slowly, as on binding a larger partner.
As for {5,6‑FAM}-PSYSP[pT]SPSYSP[pT]SPS [(pT4-CTD)2], the dissociation constant (Kd) (usually a measure of binding affinity in units of concentration) was 7.2 µM.
Next, {5,6‑FAM}-PSYSPTSPS[pY]SPTSPS [PS(YSPTSPS)(pYSPTSPS)]: 36.8 µM.
Next, {5,6‑FAM}-PS[pY]SPTSPSYSPTSPS [PS(pYSPTSPS)(YSPTSPS)]: 45.4 µM; {5,6‑FAM}-PS[pY]SPT[pS]PS[pY]SPT[pS]PS [(pY1pS5-CTD)2]: 0.3 µM; {5,6‑FAM}-PS[pY][pS]PTSPS[pY][pS]PTSPS [(pY1pS2-CTD)2]: 0.3 µM.
Next, DDDEDGYNPYTL [Nrd1 Interaction Motif (NIM) peptide from Trf4]: 3.3 µM; {5,6‑FAM}-PS[pY]SPTSPS [(pY1-CTD)1]: 38.7 µM; {5,6‑FAM}-PSY[pS]P[pT]SPSYSPTSPS [PS(YpSPpTSPS)(YSPTSPS)]: 5.7 µM.
